Source: patent US20250076311A1 (Chugai, published 2025)
Changes are numbered by the printed parent chain.

Columns and labels:
[1] = target: T1, cynomolgus monkey FcγRIIa2 extracellular domain with C-terminal His-tag (cynomolgus monkey); experiment: SPR (Biacore), antibody captured, FcgR analyte
T1 construct: also called cyno FcgRIIa2; cynoFcγRIIa2
T1 chain: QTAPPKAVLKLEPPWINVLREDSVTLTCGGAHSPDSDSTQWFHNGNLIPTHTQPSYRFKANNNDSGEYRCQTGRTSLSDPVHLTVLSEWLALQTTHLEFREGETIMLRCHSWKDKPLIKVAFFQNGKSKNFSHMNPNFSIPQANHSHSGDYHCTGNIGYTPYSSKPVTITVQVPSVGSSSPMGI

[2] = target: T2, cynomolgus monkey FcγRIIa3 extracellular domain with C-terminal His-tag (cynomolgus monkey); experiment: SPR (Biacore), KD of SG1 / KD of variant
T2 construct: also called cyno FcgRIIa3; cynoFcγRIIa3
T2 chain: T1 chain with K127I, N130K, H133P, Q142R

[3] = target: T3, human FcγRIIaR extracellular domain with C-terminal His-tag (human, UniProt P12318 34-217); experiment: SPR (Biacore), KD of SG1 / KD of variant
T3 construct: also called human FcgRIIaR; FcγRIIa (type R)
T3 chain: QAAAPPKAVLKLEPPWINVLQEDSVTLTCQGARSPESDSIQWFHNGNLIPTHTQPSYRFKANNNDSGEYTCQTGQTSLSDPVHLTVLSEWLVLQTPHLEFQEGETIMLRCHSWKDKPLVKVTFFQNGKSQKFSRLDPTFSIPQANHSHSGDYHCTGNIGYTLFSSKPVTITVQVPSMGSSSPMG

[4] = target: T4, human FcγRIIb extracellular domain with C-terminal His-tag (human, UniProt P31994 43-217); experiment: SPR (Biacore), KD of SG1 / KD of variant
T4 construct: also called human FcgRIIb
T4 sequence: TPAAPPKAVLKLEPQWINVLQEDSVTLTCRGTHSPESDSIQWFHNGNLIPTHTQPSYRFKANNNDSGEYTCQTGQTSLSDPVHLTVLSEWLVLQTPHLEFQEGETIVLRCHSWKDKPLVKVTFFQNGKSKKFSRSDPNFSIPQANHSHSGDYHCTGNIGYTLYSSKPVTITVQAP

[5] = target: T4, human FcγRIIb extracellular domain with …; experiment: SPR (Biacore), antibody captured, FcgR analyte
[6] = target: T1, cynomolgus monkey FcγRIIa2 …; experiment: SPR (Biacore), KD of SG1 / KD of variant
[7] = target: T5, human FcγRIIIaV extracellular domain with C-terminal His-tag (human, UniProt P08637 17-208); experiment: SPR (Biacore), antibody captured, FcgR analyte
T5 construct: also called human FcgRIIIaV

[8] = target: T6, cynomolgus monkey FcγRIIb extracellular domain with C-terminal His-tag (cynomolgus monkey); experiment: SPR (Biacore), KD of SG1 / KD of variant
T6 construct: also called cyno FcgRIIb; cynoFcγRIIb
T6 chain: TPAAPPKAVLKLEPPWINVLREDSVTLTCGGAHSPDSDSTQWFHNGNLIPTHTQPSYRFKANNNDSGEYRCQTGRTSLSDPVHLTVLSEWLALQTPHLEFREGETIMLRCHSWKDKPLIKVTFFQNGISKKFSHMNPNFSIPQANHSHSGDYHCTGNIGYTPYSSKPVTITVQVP

[9] = target: T7, human FcγRIIaH extracellular domain with C-terminal His-tag (human, UniProt P12318 34-217); experiment: SPR (Biacore), KD of SG1 / KD of variant
T7 construct: also called human FcgRIIaH; FcγRIIa (type H)
T7 sequence: T3 chain with R134H

[10] = target: T5, human FcγRIIIaV extracellular domain …; experiment: SPR (Biacore), KD of SG1 / KD of variant
[11] = target: T8, cynomolgus monkey FcγRIIa1 extracellular domain with C-terminal His-tag (cynomolgus monkey); experiment: SPR (Biacore), antibody captured, FcgR analyte
T8 construct: also called cyno FcgRIIa1; cynoFcγRIIa1
T8 chain: T1 chain with T95P, A121T, K127I, S128A, N130K, N135D, Q142R

[12] = target: T2, cynomolgus monkey FcγRIIa3 …; experiment: SPR (Biacore), antibody captured, FcgR analyte
[13] = target: T7, human FcγRIIaH extracellular domain …; experiment: SPR (Biacore), antibody captured, FcgR analyte

T5 sequence (P08637 17-208 F176V): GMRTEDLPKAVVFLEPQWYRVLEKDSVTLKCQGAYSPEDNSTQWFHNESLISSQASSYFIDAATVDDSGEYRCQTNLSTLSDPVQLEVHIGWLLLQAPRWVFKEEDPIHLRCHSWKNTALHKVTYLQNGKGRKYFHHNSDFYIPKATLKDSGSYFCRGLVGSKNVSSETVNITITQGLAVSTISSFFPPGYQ

B1: M103205H795-MY455/M103202L889-SK1 (antibody, human IgG1, kappa)
heavy: QVTLKESGPVLVKPTETLTLTCTVSGIDLSHDDISWVRQAPGKGLEWVGIISYAGSTYYASWAKGRLTISKDTSKNQVVLTMTNMDPVDTATYYCARGVPAYSHGGDLWGQGTLVTVSSASTKGPSVFPLAPSSKSTSGGTAALGCLVKDYFPEPVTVSWNSGALTSGVHTFPAVLQSSGLYSLSSVVTVPSSSLGTQTYICNVNHKPSNTKVDKKVEPKSCDKTHTCPPCPATELLTGPSVFLFPPKPKDTLMISRTPEVTCVVVDVSDEDPEVKFNWYVDGVEVHNAKTKPREEQYNSTYRVVSVLTVLHQDWLNGKEYKCKVSNKALPKPIEKTISKAKGQPREPQVYTLPPSREEMTKNQVSLTCLVKGFYPSDIAVEWESNGQPENNYKTTPPVLDSDGSFFLYSKLTVDKSRWQQGNVFSCSVMHEALHNHYTQKSLSLSP
light: DIVMTQSPATLSLSPGERATLSCTSSQSVYHANWLSWFQQKPGQPPKLLIYWASTLAYGVPSRFSGSGSGTDFTLTISSLQPEDAATYYCAGGYGGGRYAFGQGTKVEIKRTVAAPSVFIFPPSDEQLKSGTASVVCLLNNFYPREAKVQWKVDNALQSGNSQESVTEQDSKDSTYSLSSTLTLSKADYEKHKVYACEVTHQGLSSPVTKSFNRGEC
notes: Substitutions in EU numbering on SG1
With B1 the Kd [1] was 2.9 µM.

B2: M103205H795-MY471/M103202L889-SK1 (antibody)
chain 1: B1 heavy with A233R, T234P
chain 2: B1 light
In the case of B2, the “KD fold (SG1 = 1)” value [2] is reported as 3.5 fold, the “KD fold (SG1 = 1)” value [3] is reported as 2.3 fold and the “KD fold (SG1 = 1)” value [4] is reported as 1.6 fold.

B3: M103205H795-MY470/M103202L889-SK1 (antibody)
chain 1: B1 heavy with A233Q, T234P
chain 2: B1 light
B3 was tested, and the “KD fold (SG1 = 1)” value [3] was 2.3 fold and the Kd [5] was 2.3 µM.

B4: M103205H795-MY463/M103202L889-SK1 (antibody)
chain 1: B1 heavy with A233H, T234P
chain 2: B1 light
B4 was tested, and the “KD fold (SG1 = 1)” value [6] was 2.8 fold, the Kd [5] was 2.3 µM and the Kd [7] was 4.8 µM.

B5: M103205H795-MY461/M103202L889-SK1 (antibody)
heavy: B1 heavy with A233F, T234P
light: B1 light
notes: as for B1
In the case of B5, the “KD fold (SG1 = 1)” value [6] is reported as 2.8 fold, the “KD fold (SG1 = 1)” value [8] is reported as 3.6 fold and the “KD fold (SG1 = 1)” value [9] is reported as 3.6 fold. The “KD fold (SG1 = 1)” value [10] was 0.2 fold, the Kd [11] was 1.8 µM and the Kd [12] was 3.5 µM. For the same binder, the Kd [13] was 0.18 µM.

B6: M103205H795-MY474/M103202L889-SK1 (antibody)
heavy: B1 heavy with A233V, T234P
light: B1 light
notes: as for B1
B6 was tested, and the “KD fold (SG1 = 1)” value [4] was 2.9 fold and the Kd [13] was 0.13 µM.

B7: M103205H795-MY462/M103202L889-SK1 (antibody)
heavy: B1 heavy with A233G, T234P
light: B1 light
notes: as for B1
In the case of B7, the “KD fold (SG1 = 1)” value [8] is reported as 3.6 fold, the “KD fold (SG1 = 1)” value [10] is reported as 0.2 fold and the Kd [1] is reported as 1.8 µM.
